According to PMC7883291, “Selective cross‐linking of coinciding protein assemblies by in‐gel cross‐linking mass spectrometry” (The EMBO Journal, 2021):
“And” between values parts separate entries of the source, which are not always exact repeats. Equal entries are not always repeated.

Target: T1, Escherichia coli GroEL chaperone (Escherichia coli, UniProt P0A6F5 2-548)
T1 construct: GroEL chaperonin, Escherichia coli; monomer band at 57 kDa, native 14-mer of 800 kDa; also called 14-mer GroEL; source: expressed and purified as previously described; copies: 14
T1 sequence (P0A6F5 2-548): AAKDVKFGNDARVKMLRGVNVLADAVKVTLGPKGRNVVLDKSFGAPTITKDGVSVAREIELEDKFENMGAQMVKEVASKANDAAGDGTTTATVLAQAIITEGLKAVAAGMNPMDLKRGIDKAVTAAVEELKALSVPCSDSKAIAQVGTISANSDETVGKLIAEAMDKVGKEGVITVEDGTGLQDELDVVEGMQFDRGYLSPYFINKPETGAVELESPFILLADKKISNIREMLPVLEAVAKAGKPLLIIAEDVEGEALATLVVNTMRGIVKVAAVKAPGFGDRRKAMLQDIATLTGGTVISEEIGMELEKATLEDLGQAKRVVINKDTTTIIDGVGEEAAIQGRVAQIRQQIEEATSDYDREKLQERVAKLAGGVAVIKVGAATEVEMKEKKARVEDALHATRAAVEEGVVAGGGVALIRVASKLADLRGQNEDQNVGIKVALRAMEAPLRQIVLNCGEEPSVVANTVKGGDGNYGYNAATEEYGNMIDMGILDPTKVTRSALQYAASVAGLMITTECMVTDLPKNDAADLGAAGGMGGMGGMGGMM
Experiment: native gel or EMSA; BN-PAGE after incubation of unfolded gp23 (11.4 µM) with GroEL (0.8 µM) in 50 mM Tris pH 7.5, 50 mM KCl, MgCl2, 1 mM ADP, 10 min at RT; subunits in the bands quantified by iBAQ
Settings: both partners purified

B1: bacteriophage T4 capsid protein (gp23) (natural protein, UniProt P04535 1-521, looked up)
chain: MTIKTKAELLNKWKPLLEGEGLPEIANSKQAIIAKIFENQEKDFQTAPEYKDEKIAQAFGSFLTEAEIGGDHGYNATNIAAGQTSGAVTQIGPAVMGMVRRAIPNLIAFDICGVQPMNSPTGQVFALRAVYGKDPVAAGAKEAFHPMYGPDAMFSGQGAAKKFPALAASTQTTVGDIYTHFFQETGTVYLQASVQVTIDAGATDAAKLDAEIKKQMEAGALVEIAEGMATSIAELQEGFNGSTDNPWNEMGFRIDKQVIEAKSRQLKAAYSIELAQDLRAVHGMDADAELSGILATEIMLEINREVVDWINYSAQVGKSGMTLTPGSKAGVFDFQDPIDIRGARWAGESFKALLFQIDKEAVEIARQTGRGEGNFIIASRNVVNVLASVDTGISYAAQGLATGFSTDTTKSVFAGVLGGKYRVYIDQYAKQDYFTVGYKGPNEMDAGIYYAPYVALTPLRGSDPKNFQPVMGFKTRYGIGINPFAESAAQAPASRIQSGMPSILNSLGKNAYFRRVYVKGI
notes: major capsid protein gp23 of bacteriophage T4, printed size 56 kDa; Used as an unfolded substrate of GroEL; also called major capsid protein gp23; unfolded gp23; source: expressed and purified as previously described; unfolded in 8 M urea for one hour at RT
stoichiometry N: 1 and 2
